From patent publication US6646113 (University of Pennsylvania, dated 2003) come the findings set out here.

For assay [1], the target named is T1, GST-SMN fusion protein (human, UniProt Q16637 1-294).
T1 construct: Recombinant from E. coli, immobilised on glutathione-Sepharose; also called GST-SMNwt; GST-SMN chimeric protein; not shown: glutathione S-transferase (GST) tag of vector pGEX-5X
Put plainly: GST pull-down, 35S IVT protein (FIG. 44).

For assay [2], the target named is T2, SMN, endogenous protein in human cell extracts (human, UniProt Q16637 2-294).
T2 construct: also called Survival of Motor Neurons protein
T2 sequence (Q16637 2-294 limits assumed): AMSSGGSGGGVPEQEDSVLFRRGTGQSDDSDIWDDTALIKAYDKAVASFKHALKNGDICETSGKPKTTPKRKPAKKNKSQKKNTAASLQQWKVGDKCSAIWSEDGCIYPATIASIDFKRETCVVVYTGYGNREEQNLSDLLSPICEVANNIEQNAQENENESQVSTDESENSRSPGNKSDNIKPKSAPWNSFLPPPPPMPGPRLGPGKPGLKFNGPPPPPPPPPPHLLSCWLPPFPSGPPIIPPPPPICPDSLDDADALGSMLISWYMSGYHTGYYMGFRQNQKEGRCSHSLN
Put plainly: co-IP with 2B1 from transfected 293T cells, Western blot. On the technique in general: A western blot detects proteins with antibodies after separation by electrophoresis.

The target in assay [3] is T3, His-tagged SMN wild type, purified recombinant (human, UniProt Q16637 1-294).
T3 construct: E. coli BL21(DE3)pLysS, nickel chelation chromatography; also called His-SMN; His6-SMN; not shown: His6 tag (pET28 vector, detected with anti-T7 tag antibody)
T3 sequence (Q16637 whole entry): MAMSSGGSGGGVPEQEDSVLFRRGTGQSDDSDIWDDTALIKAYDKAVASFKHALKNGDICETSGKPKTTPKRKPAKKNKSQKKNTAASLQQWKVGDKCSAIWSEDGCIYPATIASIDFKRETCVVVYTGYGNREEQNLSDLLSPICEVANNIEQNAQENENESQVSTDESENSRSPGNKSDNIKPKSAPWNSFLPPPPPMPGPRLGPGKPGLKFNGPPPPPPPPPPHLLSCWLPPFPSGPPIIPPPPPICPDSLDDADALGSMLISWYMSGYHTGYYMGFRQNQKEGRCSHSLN
Put plainly: in vitro binding of purified recombinant protein to GST-SIP1.

The target of assay [4] is T4, His-tagged SMNY272C, purified recombinant (human, UniProt Q16637 1-294).
T4 construct: also called His-SMNY272C; SMNY272C recombinant protein; not shown: His6 tag (pET28 vector)
T4 sequence (Q16637 whole entry Y272C): as the sequence (Q16637 whole entry) above, with Y272C counted along it
The description is as above.

Assay [5] addresses recombinant SMN protein (far-Western target) (human, UniProt Q16637 1-294, limits assumed). Put plainly: far-Western with in vitro translated SIP1.
For a further assay, the target named is T5, myc-tagged SMNY272C (human, UniProt Q16637 1-294).
T5 construct: In vitro translated (35S) or expressed in 293T cells
T5 sequence (Q16637 whole entry Y272C): as the sequence (Q16637 whole entry) above, with Y272C counted along it
Put plainly: co-IP with 2E17 from transfected 293T cells, Western blot.

Assay [6] has as its target T2, SMN, endogenous protein in human cell …. The assay is described as follows: gel filtration (Superose 6 HR 10/30) of HeLa S100, Western blot. On the technique in general: SEC sorts molecules by how far they enter the pores of the column.
A further assay addresses T6, myc-tagged SMN wild type (human, UniProt Q16637 1-294).
T6 construct: In vitro translated (35S) or expressed in transfected 293T cells; also called myc-SMN; mycSMN
Put plainly: co-IP with 2E17 from transfected 293T cells, Western blot (association in a complex).

The next assay has as its target T7, GST alone (UniProt P08515 1-218 = GST).
T7 construct: Negative control on glutathione-Sepharose; also called glutathione S-transferase
The assay is described as follows: GST pull-down, 35S IVT protein.

The target in assay [7] is Sm D1 protein, in vitro translated and 35S-labeled (UniProt P62314 1-119). Put plainly: GST pull-down, 35S IVT protein.
Assay [8] deals with T1, GST-SMN fusion protein. The assay is described as follows: GST pull-down, 35S IVT protein.

T1 sequence (Q16637 whole entry, the tested form may be a part): as the sequence (Q16637 whole entry) above
T7 sequence (P08515 whole entry): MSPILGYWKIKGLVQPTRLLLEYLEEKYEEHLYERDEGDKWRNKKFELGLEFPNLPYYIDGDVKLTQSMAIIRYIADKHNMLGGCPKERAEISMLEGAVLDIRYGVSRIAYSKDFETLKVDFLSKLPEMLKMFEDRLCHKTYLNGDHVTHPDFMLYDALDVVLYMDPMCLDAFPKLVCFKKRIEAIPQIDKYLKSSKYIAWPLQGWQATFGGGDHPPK
T6 sequence (Q16637 whole entry): as the sequence (Q16637 whole entry) above
Sequence of recombinant SMN protein (far-Western target) (Q16637 whole entry): as above

B1: myc-tagged SIP1ΔC162 (other, not shown: small tags and cut ends)
chain: MRRAELAGLKTMAWVPAESAVEELMPRLLPVEPCDLTEGFDPSVPPRTPQEYLRRVQIEAAQCPDVVVAQIDPKKLKRKQSVNISLSGCQPAPEGYSPTLQWQQQQVAQFSTVRQNVN
For the molecule B1, the binding result with GST-SMN fusion protein [1] is “no binding”.

B2: myc-tagged SIP1ΔC89 (other, not shown: small tags and cut ends)
chain: MRRAELAGLKTMAWVPAESAVEELMPRLLPVEPCDLTEGFDPSVPPRTPQEYLRRVQIEAAQCPDVVVAQIDPKKLKRKQSVNISLSGCQPAPEGYSPTLQWQQQQVAQFSTVRQNVNKHRSHWKSQQLDSNVTMPKSEDEEGWKKFCLGEKLCADGAVGPATNESPGIDYVQIGFPPLLSIVSRMNQATV
notes: The whole entry must be cut by 89 residues at the C-terminus
With B2, the binding result (in assay [2]; with GST-SMN fusion protein [1]) was “no binding” each time.

B3: GST-SIP1 fusion protein (other, not shown: a dimerising Fc or GST)
chain: MRRAELAGLKTMAWVPAESAVEELMPRLLPVEPCDLTEGFDPSVPPRTPQEYLRRVQIEAAQCPDVVVAQIDPKKLKRKQSVNISLSGCQPAPEGYSPTLQWQQQQVAQFSTVRQNVNKHRSHWKSQQLDSNVTMPKSEDEEGWKKFCLGEKLCADGAVGPATNESPGIDYVQIGFPPLLSIVSRMNQATVTSVLEYLSNWFGERDFTPELGRWLYALLACLEKPLLPEAHSLIRQLARRCSEVRLLVDSKDDERVPALNLLICLVSRYFDQRDLADEPS
As to B3, the binding result in assay [3] and in [4] was “binds” throughout.

B4: SIP1 (human), in vitro translated and 35S-labeled (other)
chain: B3 chain
notes: Made in rabbit reticulocyte lysate; also called full-length SIP1; Gemin2
In the case of B4, the binding result in [5] is reported as “binds”.

B5: myc-tagged SIP1 wild type (other, not shown: small tags and cut ends)
chain: B3 chain
notes: In vitro translated (35S) or expressed in 293T cells; also called myc-SIP1; myc-Gemin2
With B5, the binding result in [2] was “binds”.

B6: SIP1 (Gemin2), endogenous protein in human cell extracts (other)
chain: B3 chain
For the molecule B6, the binding result (in the assay with myc-tagged SMNY272C; in [6]; with myc-tagged SMN wild type) was “binds” in each case.

B7: myc-ΔN368C277Gemin3 (other, not shown: small tags and cut ends)
chain: TSRGIDAEKVNLVVNLDVPLDWETYMHRIGRAGRFGTLGLTVTYCCRGEEENMMMRIAQKCNINLLPLPDPIPSGLMEECVDWDVEVKAAVHTYGIASVPNQPLKKQIQKIERTLQIQKAHGDHMASSRNNSVSGLSVKSKNNTKQKLPVKSHSECGIIEKATSPKELGCDRQSEEQMK
notes: also called ΔN368C272Gemin3
In the case of B7, the binding result in the assay with GST alone was “no binding”.

B8: GST-Gemin3 fusion protein (other)
chain: MAAAFEASGALAAVATAMPAEHVAVQVPAPEPTPGPVRILRTAQDLSSPRTRTGDVLLAEPADFESLLLSRPVLEGLRAAGFERPSPVQLKAIPLGRCGLDLIVQAKSGTGKTCVFSTIALDSLVLENLSTQILILAPTREIAVQIHSVITAIGIKMEGLECHVFIGGTPLSQDKTRLKKCHIAVGSPGRIKQLIELDYLNPGSIRLFILDEADKLLEEGSFQEQINWIYSSLPASKQMLAVSATYPEFLANALTKYMRDPTFVRLNSSDPSLIGLKQYYKVVNSYPLAHKVFEEKTQHLQELFSRIPFNQALVFSNLHSRAQHLADILSSKGFPAECISGNMNQNQRLDAMAKLKHFHCRVLISTDLTSRGIDAEKVNLVVNLDVPLDWETYMHRIGRAGRFGTLGLTVTYCCRGEEENMMMRIAQKCNINLLPLPDPIPSGLMEECVDWDVEVKAAVHTYGIASVPNQPLKKQIQKIERTLQIQKAHGDHMASSRNNSVSGLSVKSKNNTKQKLPVKSHSECGIIEKATSPKELGCDRQSEEQMKNSVQTPVENSTNSQHQVKEALPVSLPQIPCLSSFKIHQPYTLTFAELVEDYEHYIKEGLEKPVEIIRHYTGPGDQTVNPQNGFVRNKVIEQKVPVLASSSQSGDSESDSDSYSSRTSSQSKGNKSYLESSSDNQLKDSESTPVDDRISLEQPPNGTDTPNPEKYQESPGIQMKTRLKEGASQRAKQSRRNLPRRSSFRLQTEAQEDDWYDCHREIRLSFSDTYQDYEEYWRAYYRAWQEYYAAASHSYYWNAQRHPSWMAAYHMNTIYLQEMMHSNQ
notes: also called Gemin3-GST; not shown: glutathione S-transferase (GST) tag of vector pGEX-5X-3
As to B8, in [7], the binding result is given as “no binding”.

B9: myc-ΔN548Gemin3 (other, not shown: small tags and cut ends)
chain: SVQTPVENSTNSQHQVKEALPVSLPQIPCLSSFKIHQPYTLTFAELVEDYEHYIKEGLEKPVEIIRHYTGPGDQTVNPQNGFVRNKVIEQKVPVLASSSQSGDSESDSDSYSSRTSSQSKGNKSYLESSSDNQLKDSESTPVDDRISLEQPPNGTDTPNPEKYQESPGIQMKTRLKEGASQRAKQSRRNLPRRSSFRLQTEAQEDDWYDCHREIRLSFSDTYQDYEEYWRAYYRAWQEYYAAASHSYYWNAQRHPSWMAAYHMNTIYLQEMMHSNQ
Consider B9, for which the binding result in the assay with GST-SMN fusion protein [8] is given as “no binding”.
